Reference: article PMC8964686

Target: Escherichia coli RNA polymerase holoenzyme with σ^70, in the initially stalled complex (E. coli) (UniProt P00579)
UniProt P00579, sequence (P00579 whole entry, looked up, one chain of several): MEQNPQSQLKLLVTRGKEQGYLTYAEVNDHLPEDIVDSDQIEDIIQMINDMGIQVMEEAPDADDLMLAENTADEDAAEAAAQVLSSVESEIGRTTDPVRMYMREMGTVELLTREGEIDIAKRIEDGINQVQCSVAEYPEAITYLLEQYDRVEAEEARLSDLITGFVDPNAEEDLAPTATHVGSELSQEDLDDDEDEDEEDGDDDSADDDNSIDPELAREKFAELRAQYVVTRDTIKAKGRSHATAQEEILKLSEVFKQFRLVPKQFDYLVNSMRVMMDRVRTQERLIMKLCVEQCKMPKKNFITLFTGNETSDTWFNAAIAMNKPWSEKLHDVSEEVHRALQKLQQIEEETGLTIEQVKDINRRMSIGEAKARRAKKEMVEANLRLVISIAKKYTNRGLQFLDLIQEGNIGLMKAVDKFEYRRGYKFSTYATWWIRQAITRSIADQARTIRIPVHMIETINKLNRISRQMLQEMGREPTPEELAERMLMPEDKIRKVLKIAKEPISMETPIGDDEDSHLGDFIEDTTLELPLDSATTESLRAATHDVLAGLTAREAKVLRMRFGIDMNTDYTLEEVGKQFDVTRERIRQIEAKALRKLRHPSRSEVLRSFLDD

time constant of the decrease of stand-by TE as the interval between ISC washing and NTP injection is prolonged: 693 s
Substance: Rho (ρ) transcription termination factor, wild type (from UniProt P0AG30 1-419) (enzyme)
